According to the supplement of paper PMC9233669:
Fewer inactive variants are shown than the library holds.

How the values were obtained:
biotinyl-Leu-oxazolone = experiment: self-aminoacylation, catalytic enhancement (BLO) (fold over background); higher = more active; k-Seq, kA / k0A0; sequences stand for … in GGGAAUGGAUCCACAUCUACGAAUUC…UUCACUGCAGACUUGACGAAGCUG
Outline: (§1)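 Mutagenized RNA pools with a 21-nt variable region (0.43 μM) were reacted with each biotinyl-aminoacyl-oxazolone at 2–1250 μM for 90 minutes at room temperature, in 50 μL HEPES/NaCl/KCl/MgCl2/CaCl2 buffer containing 5% acetonitrile at pH 6.9–7.0. RNA captured on streptavidin was quantified by triplicate qPCR and by Illumina sequencing. The fraction reacted for each sequence was fit to a pseudo-first-order model with bootstrapping, and catalytic enhancement is the median kA divided by the uncatalyzed rate, taken as the low-activity peak of a bimodal Gaussian fit.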

biotinyl-Phe-oxazolone = experiment: self-aminoacylation, catalytic enhancement (BFO) (fold over background); higher = more active; k-Seq, kA / k0A0; sequences stand for … in GGGAAUGGAUCCACAUCUACGAAUUC…UUCACUGCAGACUUGACGAAGCUG
Outline: as §1

biotinyl-Met-oxazolone = experiment: self-aminoacylation, catalytic enhancement (BMO) (fold over background); higher = more active; k-Seq, kA / k0A0; sequences stand for … in GGGAAUGGAUCCACAUCUACGAAUUC…UUCACUGCAGACUUGACGAAGCUG
Outline: as §1

biotinyl-Val-oxazolone = experiment: self-aminoacylation, catalytic enhancement (BVO) (fold over background); higher = more active; k-Seq, kA / k0A0; sequences stand for … in GGGAAUGGAUCCACAUCUACGAAUUC…UUCACUGCAGACUUGACGAAGCUG
Outline: as §1

biotinyl-Trp-oxazolone = experiment: self-aminoacylation, catalytic enhancement (BWO) (fold over background); higher = more active; k-Seq, kA / k0A0; sequences stand for … in GGGAAUGGAUCCACAUCUACGAAUUC…UUCACUGCAGACUUGACGAAGCUG
Outline: as §1

biotinyl-Ile-oxazolone = experiment: self-aminoacylation, catalytic enhancement (BIO) (fold over background); higher = more active; k-Seq, kA / k0A0; sequences stand for … in GGGAAUGGAUCCACAUCUACGAAUUC…UUCACUGCAGACUUGACGAAGCUG
Outline: as §1

Sequence | self-aminoacylation (biotinyl-Leu-oxazolone) | self-aminoacylation (biotinyl-Phe-oxazolone) | self-aminoacylation (biotinyl-Met-oxazolone) | self-aminoacylation (biotinyl-Val-oxazolone) | self-aminoacylation (biotinyl-Trp-oxazolone) | self-aminoacylation (biotinyl-Ile-oxazolone)
AAUUCUGCUAAUAGUCGCAAG [Fam3.1 aminoacylation ribozyme variant] | 1.61 | 12.7 | 1.81 | 1.56 | 4.46 | 1.88
AAUUUUGAUAAUAGUCGCAAG [Fam3.1 aminoacylation ribozyme variant] | 1.64 | 2.09 | 1.66 | 1.39 | 1.37 | 1.7
AAUUUUGCUAAUAGGCGCAAG [Fam3.1 aminoacylation ribozyme variant] | 1.12 | 1.5 | 1.43 | 1.28 | 1.71 | 1.57
AAUUUUGCUAAUAGUAGCAAG [Fam3.1 aminoacylation ribozyme variant] | 1.75 | 1.11 | 1.31 | 1.37 | 0.996 | 1.41
AAUUUUGCUAAUAGUCGCAAC [Fam3.1 aminoacylation ribozyme variant] | 1.44 | 2.23 | 1.41 | 1.8 | 1.95 | 1.64
AAUUUUGCUAAUAGUCGCGAG [Fam3.1 aminoacylation ribozyme variant] | 1.7 | 8.52 | 1.99 | 1.51 | 2.02 | 2.28
AAUUUUGCUAAUAGUCGUAAG [Fam3.1 aminoacylation ribozyme variant] | 1.31 | 10.9 | 1.11 | 1.44 | 4.02 | 1.42
AAUUUUGCUAAUAGUCUCAAG [Fam3.1 aminoacylation ribozyme variant] | 1.19 | 2.56 | 1.21 | 1.26 | 1.23 | 1.38
AAUUUUGCUAAUUGUCGCAAG [Fam3.1 aminoacylation ribozyme variant] | 2.13 | 2.61 | 1.92 | 1.73 | 2.21 | 2.45
AAUUUUGUUAAUAGUCGCAAG [Fam3.1 aminoacylation ribozyme variant] | 1.93 | 2.48 | 2.05 | 1.72 | 2.56 | 2.04
ACACACUUCAAGCAACCGGUC [Fam1B.1 aminoacylation ribozyme variant] | 1.17 | 1.43 | 1.51 | 1.54 | 1.13 | 1.18
ACACACUUCAAGCAAUCGGAC [Fam1B.1 aminoacylation ribozyme variant] | 0.979 | 1.42 | 0.97 | 1.02 | 1.43 | 1.1
ACACACUUCAAGCAAUCGGGC [Fam1B.1 aminoacylation ribozyme variant] | 2.34 | 2.02 | 2.81 | 2.73 | 3.29 | 2.48
ACACACUUCAAGCAAUCGUUC [Fam1B.1 aminoacylation ribozyme variant] | 0.787 | 1.43 | 0.825 | 1.23 | 1.21 | 1.02
ACACACUUCAAGCAAUCUGUC [Fam1B.1 aminoacylation ribozyme variant] | 0.58 | 1.39 | 0.567 | 1.02 | 0.683 | 0.759
ACACACUUCAAGCAAUUGGUC [Fam1B.1 aminoacylation ribozyme variant] | 0.945 | 1.61 | 1.01 | 1.17 | 1.29 | 1.09
ACACACUUCAAGCAUUCGGUC [Fam1B.1 aminoacylation ribozyme variant] | 1.8 | 1.5 | 1.68 | 1.87 | 2.13 | 1.81
ACACCCUUCAAGCAAUCGGUC [Fam1B.1 aminoacylation ribozyme variant] | 0.984 | 2.12 | 0.897 | 1.02 | 1.59 | 1.01
ACACUCUUCAAGCAAUCGGUC [Fam1B.1 aminoacylation ribozyme variant] | 1.11 | 4.37 | 0.9 | 1.08 | 2.4 | 0.997
ACCACCCUGGUCAUCGAGUGA [Fam2.1 aminoacylation ribozyme variant] | 9.22 | 27.9 | 10.1 | 5.17 | 9.59 | 4.75
ACGACCCUGGUCAUCGAGUGA [Fam2.1 aminoacylation ribozyme variant] | 6.52 | 9.21 | 6.93 | 3.77 | 7.11 | 3.57
ACGUUUACUAAUAGUCGCAAG [Fam3.1 aminoacylation ribozyme variant] | 1.8 | 2.57 | 1.35 | 1.53 | 1.41 | 1.56
ACGUUUGCGAAUAGUCGCAAG [Fam3.1 aminoacylation ribozyme variant] | 1.85 | 3.56 | 1.58 | 1.45 | 2.17 | 1.97
ACGUUUGCUAACAGUCGCAAG [Fam3.1 aminoacylation ribozyme variant] | 1.97 | 4.28 | 1.53 | 1.29 | 1.94 | 1.5
ACGUUUGCUAAUAGGCGCAAG [Fam3.1 aminoacylation ribozyme variant] | 1.67 | 5.88 | 1.35 | 1.61 | 0.911 | 1.94
ACGUUUGCUAAUAGUCACAAG [Fam3.1 aminoacylation ribozyme variant] | 1.15 | 3.82 | 0.95 | 1.39 | 1.82 | 1.34
